In US20190100594A1 (INHIBRX, published 2019):
Where a chain is given by its changes, count along the chain named. Read-outs that look alike come from different tables or passages of the source. Values belong to the binder of their own block, whether it stands above or below them.

Columns and labels:
[1] = biological target: T1, GITR expressed on CHO cells (Homo sapiens (Human), UniProt Q9Y5U5 26-241); experiment: flow cytometry competition on GITR-expressing CHO cells; blocked ligand recombinant GITRL; readout GITRL bound, MFI-FL1
T1 construct: also called glucocorticoid-induced TNFR-related protein; TNFRSF18
T1 sequence: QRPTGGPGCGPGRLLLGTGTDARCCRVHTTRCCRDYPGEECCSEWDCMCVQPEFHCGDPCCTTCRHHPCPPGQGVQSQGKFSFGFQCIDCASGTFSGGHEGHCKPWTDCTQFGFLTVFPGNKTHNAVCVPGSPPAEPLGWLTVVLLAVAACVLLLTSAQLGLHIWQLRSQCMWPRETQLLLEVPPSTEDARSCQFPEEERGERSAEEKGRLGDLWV
Description: Briefly, in these studies, a flow cytometry assay using GITR expressing CHO cells and recombinant GITRL was used to implement to assess blocking capacity. The GITR antibody, TRX-518, was used as a control for these studies.

[2] = biological target: T1, GITR expressed on CHO cells; experiment: flow cytometry on GITR-expressing CHO cells, MFI-FL4
[3] = biological target: T1, GITR expressed on CHO cells; experiment: as above; remark: listed apart in the source
[4] = biological target: T2, human GITR-CHO (human, UniProt Q9Y5U5); experiment: flow cytometry on human GITR-CHO cells
T2 construct: expressed on the surface of CHO cells, construct not described; also called human GITR expressed on the surface of CHO cells
T2 sequence (looked up): T1 sequence

[5] = biological target: T3, cyno GITR-CHO (cynomolgus monkey); experiment: flow cytometry on cyno GITR-CHO cells
T3 construct: expressed on the surface of CHO cells, construct not described; also called cynomolgus GITR expressed on the surface of CHO cells

[6] = biological target: T3, cyno GITR-CHO; experiment: flow cytometry on cyno GITR-CHO cells; remark: listed apart in the source
[7] = biological target: T2, human GITR-CHO; experiment: flow cytometry on human GITR-CHO cells; remark: listed apart in the source
[8] = biological target: T2, human GITR-CHO; experiment: flow cytometry on human GITR-CHO cells; remark: listed apart in the source
[9] = biological target: T2, human GITR-CHO; experiment: flow cytometry on human GITR-CHO cells; remark: listed apart in the source
[10] = biological target: T3, cyno GITR-CHO; experiment: flow cytometry on cyno GITR-CHO cells; remark: listed apart in the source

EC50 (read off the curve) [6]: ~2 nM
EC50 (read off the curve) [7]: 1 to 2 nM
B7: hzC06v3.9 (VHH)
VHH: EVQLLESGGGEVQPGGSLRLSCAASGSVFSIDAMGWYRQAPGKQRELVAVLSGISSAKYAASAPGRFTISRDNAKNTVYLQMSSLRAEDTAVYYCYADVSTGWGRDAHGYWGQGTLVTV

EC50 (read off the curve) [5]: ~4 nM
EC50 (read off the curve) [4]: 1 to 2 nM
B8: hzC06v2.2 (VHH)
VHH: B7 VHH with Q44G, K58T, A61E, A63V, P64K, V78L

EC50 (read off the curve) [8]: ~4 nM
B9: hzC06v3.5 (VHH)
VHH: B7 VHH with A61E, A63V, P64K, D72A, N73S, K75P, V78L

EC50 (read off the curve) [8]: ~4 nM
B10: hzC06v3.2 (VHH)
VHH: B7 VHH with A61D, A63V, P64K, R71G, V78L

EC50 (read off the curve) [5]: ~4 nM
EC50 (read off the curve) [4]: 1 to 2 nM
B11: hzC06v2.4 (VHH)
VHH: B7 VHH with K43Q, K58T, A61E, A63V, P64K, V78L

EC50 (read off the curve) [8]: ~4 nM
B12: hzC06v3.1 (VHH)
VHH: B7 VHH with Q39L, K43Q, A61E, A63V, P64K, V78L

EC50 (read off the curve) [6]: ~2 nM
EC50 (read off the curve) [7]: 1 to 2 nM
B13: hzC06v3.7 (VHH)
VHH: B7 VHH with N73A, A74V

EC50 (read off the curve) [7]: 1 to 2 nM
B14: hzC06v3.8 (VHH)
VHH: B7 VHH with N73A, A74V, K75E

EC50 (read off the curve) [4]: 1 to 2 nM
B15: hzC06v2.1 (VHH)
VHH: B7 VHH with Q44G, R45L, K58T, A61E, A63V, P64K, V78L

EC50 (read off the curve) [6]: ~2 nM
EC50 (read off the curve) [7]: 1 to 2 nM
B17: hzC06v3.10 (VHH)
VHH: B7 VHH with A61D, S62A, A63V, P64K, D72A, N73S, K75P

EC50 (read off the curve) [5]: ~4 nM
EC50 (read off the curve) [4]: 1 to 2 nM
B18: hzC06v2.3 (VHH)
VHH: B7 VHH with K58T, A61E, A63V, P64K, V78L

EC50 (read off the curve) [6]: ~2 nM
EC50 (read off the curve) [7]: 1 to 2 nM
B20: hzC06v3.12 (VHH)
VHH: B7 VHH with D72A, N73S, K75P

EC50 (read off the curve) [7]: 1 to 2 nM
B21: hzC06v3.11 (VHH)
VHH: B7 VHH with A61D, S62A, A63V, P64E, D72A, N73S, K75P

EC50 (read off the curve) [9]: ~2 nM
EC50 (read off the curve) [10]: 1 to 2 nM
B22: hzCC04v5.5 (VHH)
VHH: EVQLLESGGGEVQPGGSLRLSCAASGFTFSTHGMDWFRQAPGKDLEWVSAIQSGGSWTSYASSVKGRFTISRDNAKNTLYLQMQQLRAEDTAVYWCQNRVTRGQGTLVTV
notes: sheet prints hzCC04, text hzC04; also called hzC04v5.5

EC50 (read off the curve) [9]: ~2 nM
EC50 (read off the curve) [10]: 1 to 2 nM
B23: hzCC04v5.12 (VHH)
VHH: B22 VHH with Q84S, Q85N
notes: sheet prints hzCC04, text hzC04; also called hzC04v5.12

EC50 (read off the curve) [9]: ~2 nM
EC50 (read off the curve) [10]: 1 to 2 nM
B24: hzCC04v5.6 (VHH)
VHH: B22 VHH with Q85N
notes: sheet prints hzCC04, text hzC04; also called hzC04v5.6

EC50 (read off the curve) [9]: ~2 nM
EC50 (read off the curve) [10]: 1 to 2 nM
B25: hzCC04v5.10 (VHH)
VHH: B22 VHH with Q85D
notes: sheet prints hzCC04, text hzC04; also called hzC04v5.10

EC50 (read off the curve) [9]: ~2 nM
EC50 (read off the curve) [10]: 1 to 2 nM
B26: hzCC04v5.11 (VHH)
VHH: B22 VHH with Q84N
notes: sheet prints hzCC04, text hzC04; also called hzC04v5.11

EC50 (read off the curve) [9]: ~2 nM
EC50 (read off the curve) [10]: 1 to 2 nM
B27: hzCC04v5.7 (VHH)
VHH: B22 VHH with Q84D, Q85N
notes: sheet prints hzCC04, text hzC04; also called hzC04v5.7

EC50 (read off the curve) [9]: ~2 nM
EC50 (read off the curve) [10]: 1 to 2 nM
B28: hzCC04v5.9 (VHH)
VHH: B22 VHH with Q84D, Q85D
notes: sheet prints hzCC04, text hzC04; also called hzC04v5.9

EC50 (read off the curve) [9]: ~2 nM
EC50 (read off the curve) [10]: 1 to 2 nM
B29: hzCC04v5.8 (VHH)
VHH: B22 VHH with Q84N, Q85D
notes: sheet prints hzCC04, text hzC04; also called hzC04v5.8

Further lines, the binder ahead of its results:

B1: B12 (VHH, not shown: a dimerising Fc or GST)
VHH: QVQLQQSGGGLVQAGGSLRLSCAASGSIFSIDAMGWYRLAPGKQRELVAVIDGVSPNYADSVKGRFTISSDIAKNTVYLQMHSPKPEDTAVYYCNADVSTGWGRPADHYWGQGTQVTVS
IC50 (read off the curve) [1]: ~6 nM
EC50 (read off the curve) [2]: ~4 nM

B2: C7 (VHH, not shown: a dimerising Fc or GST)
VHH: QVQLQESGGGLVQAGGSLRLSCTASGSIFSIDDMGWYRLAPGKQRELVAVHSGSSTNYGDSVKGRFTISGDSAKNTVYLQMHRLEPEDTAVYYCYAAISSGWGRDAEDYWGQGTQVTVS
IC50 (read off the curve) [1]: 2 to 3 nM
EC50 (read off the curve) [2]: ~2 nM

B3: F2 (VHH, not shown: a dimerising Fc or GST; small tags and cut ends)
VHH: QLVQSGGGLVQPGESLRLSCAASGSVFSIDSVSWFRQGPGNERELVALITGGRTTTYADSVKGRFTISRANAPNTVHLRMNSLKPEDTAVYYCNAAVSTGWGRNADDYWGQGTQVTVS
IC50 (read off the curve) [1]: ~1 nM
EC50 (read off the curve) [3]: ~1 nM

B4: hzC06v3 (VHH)
VHH: B7 VHH with A61E, A63V, P64K, V78L
EC50 (read off the curve) [4]: 1 to 2 nM

B5: hzC06v1.2 (VHH)
VHH: B7 VHH with Q44G, A49S, V50A, K58T, A61E, A63V, P64K, V78L
EC50 (read off the curve) [5]: ~4 nM
EC50 (read off the curve) [4]: 1 to 2 nM

B6: hzC06v1.1 (VHH)
VHH: B7 VHH with Q44G, R45L, A49S, V50A, K58T, A61E, A63V, P64K, V78L
EC50 (read off the curve) [5]: ~8 nM
EC50 (read off the curve) [4]: 1 to 2 nM

B16: hzC06v1.3 (VHH)
VHH: B7 VHH with A49S, V50A, K58T, A61E, A63V, P64K, V78L
EC50 (read off the curve) [5]: ~4 nM
EC50 (read off the curve) [4]: 1 to 2 nM

B19: hzC06v1.4 (VHH)
VHH: B7 VHH with K43Q, A49S, V50A, K58T, A61E, A63V, P64K, V78L
EC50 (read off the curve) [5]: ~4 nM
EC50 (read off the curve) [4]: 1 to 2 nM

B30: H11 (VHH, not shown: a dimerising Fc or GST)
VHH: QVQLVQSGGGLVQPGGSLRLSCAASGSVFSIDSMSWFRQAPGNERELVALITGGRTTTYADSVKGRFTISRASAPNTVHLQMNSLKPEDTAVYYCNAVVSTGWGRNADDYWGQGTQVTVS
IC50 (read off the curve) [1]: 2 to 3 nM
EC50 (read off the curve) [2]: 2 to 3 nM

B31: B5 (VHH, not shown: a dimerising Fc or GST)
VHH: B30 VHH with G16E, A40G, S73N, K86E, V98A
IC50 (read off the curve) [1]: 2 to 3 nM
EC50 (read off the curve) [2]: 2 to 3 nM

B32: C4 (VHH, not shown: a dimerising Fc or GST)
VHH: B30 VHH with G16E, A40G, S73N, V98A, N106S
IC50 (read off the curve) [1]: 2 to 3 nM
EC50 (read off the curve) [2]: 2 to 3 nM

B33: B2 (VHH, not shown: a dimerising Fc or GST; small tags and cut ends)
VHH: B30 VHH with V5Q, Q6E, R55H, A60G, K86Q, V98A
IC50 (read off the curve) [1]: ~1 nM
EC50 (read off the curve) [3]: ~0.7 nM

B34: E2 (VHH, not shown: a dimerising Fc or GST; small tags and cut ends)
VHH: B30 VHH with V5Q, Q6E, H79Y
IC50 (read off the curve) [1]: ~2 nM
EC50 (read off the curve) [3]: ~1 nM

B35: B3 (VHH, not shown: a dimerising Fc or GST)
VHH: B30 VHH with S21I, A40R, A60S, P75L, V98A, V99L, N106D, D108S, D109A
IC50 (read off the curve) [1]: ~3 nM
EC50 (read off the curve) [3]: ~2 nM

B36: B7 (VHH, not shown: a dimerising Fc or GST)
VHH: B30 VHH with V5Q, Q6E, A40T, L50H, S84N, V98A
IC50 (read off the curve) [1]: ~3 nM
EC50 (read off the curve) [2]: ~3 nM
